Legend:
Test in all cases: purified protein
Type in all cases: biochemical, Escherichia coli
purified protein [1] = substrate: Nc1nc2c(ncn2[C@H]2C[C@H](O)[C@@H](COP(=O)(O)O)O2)c(=O)[nH]1; conditions: 2 mM ATP, 10 mM Mg acetate, 50 mM K acetate, 20 mM Tris-acetate, 37°C, three protein batches (N = 3)
purified protein [2] = substrate: Nc1ccn([C@H]2C[C@H](O)[C@@H](COP(=O)(O)O)O2)c(=O)n1; conditions: 2 mM ATP, 10 mM Mg acetate, 50 mM K acetate, 20 mM Tris-acetate, 37°C, three protein batches (N = 3)
purified protein [3] = substrate: Nc1nc2c(ncn2[C@H]2C[C@H](O)[C@@H](CO[P@](=O)(O)OP(=O)(O)O)O2)c(=O)[nH]1; conditions: 2 mM ATP, 10 mM Mg acetate, 50 mM K acetate, 20 mM Tris-acetate, 37°C
purified protein [4] = substrate: Cc1cn([C@H]2C[C@H](O)[C@@H](COP(=O)(O)OP(=O)(O)O)O2)c(=O)[nH]c1=O; conditions: 2 mM ATP, 10 mM Mg acetate, 50 mM K acetate, 20 mM Tris-acetate, 37°C
purified protein [5] = substrate: Nc1ccn([C@H]2C[C@H](O)[C@@H](COP(=O)(O)OP(=O)(O)O)O2)c(=O)n1; conditions: 2 mM ATP, 10 mM Mg acetate, 50 mM K acetate, 20 mM Tris-acetate, 37°C
purified protein [6] = substrate: Nc1ncnc2c1ncn2[C@H]1C[C@H](O)[C@@H](COP(=O)(O)OP(=O)(O)O)O1; conditions: 2 mM ATP, 10 mM Mg acetate, 50 mM K acetate, 20 mM Tris-acetate, 37°C
purified protein [7] = substrate: Cc1cn([C@H]2C[C@H](O)[C@@H](COP(=O)(O)O)O2)c(=O)[nH]c1=O; conditions: 2 mM ATP, 10 mM Mg acetate, 50 mM K acetate, 20 mM Tris-acetate, 37°C, three protein batches (N = 3)

B1: guanylate kinase (gmk) (Escherichia coli K-12) (protein)
chain: MAQGTLYIVSAPSGAGKSSLIQALLKTQPLYDTQVSVSHTTRQPRPGEVHGEHYFFVNHDEFKEMISRDAFLEHAEVFGNYYGTSREAIEQVLATGVDVFLDIDWQGAQQIRQKMPHARSIFILPPSKIELDRRLRGRGQDSEEVIAKRMAQAVAEMSHYAEYDYLIVNDDFDTALTDLKTIIRAERLRMSRQKQRHDALISKLLAD
notes: C-terminal 6x His tag (pET24a), kept; E. coli BL21(DE3) host; Ni-NTA
Purified protein [1]
  Km: 848 ± 402 µM
  Vmax: 76.2 µmol/min/mg

B2: cytidylate kinase (cmk) (Escherichia coli K-12) (protein)
chain: MTAIAPVITIDGPSGAGKGTLCKAMAEALQWHLLDSGAIYRVLALAALHHHVDVASEDALVPLASHLDVRFVSTNGNLEVILEGEDVSGEIRTQEVANAASQVAAFPRVREALLRRQRAFRELPGLIADGRDMGTVVFPDAPVKIFLDASSEERAHRRMLQLQEKGFSVNFERLLAEIKERDDRDRNRAVAPLVPAADALVLDSTTLSIEQVIEKALQYARQKLALA
notes: as for B1
Purified protein [2]
  Km: 314 ± 154 µM
  Vmax: 69.3 µmol/min/mg

B3: nucleotide disphosphate kinase (ndk; NDK) (Escherichia coli K-12) (protein)
chain: AIERTFSIIKPNAVAKNVIGNIFARFEAAGFKIVGTKMLHLTVEQARGFYAEHDGKPFFDGLVEFMTSGPIVVSVLEGENAVQRHRDLLGATNPANALAGTLRADYADSLTENGTHGSDSVESAAREIAYFFGEGEVCPRTR
notes: as for B1
Purified protein [3]
  Km: 431 ± 89 µM
Purified protein [4]
  Km: 2398 ± 1036 µM
Purified protein [5]
  Km: 543 ± 105 µM
Purified protein [6]
  Km: 1185 ± 87 µM

B4: thymidylate kinase (tmk) (Escherichia coli K-12) (protein)
chain: MRSKYIVIEGLEGAGKTTARNVVVETLEQLGIRDMVFTREPGGTQLAEKLRSLVLDIKSVGDEVITDKAEVLMFYAARVQLVETVIKPALANGTWVIGDRHDLSTQAYQGGGRGIDQHMLATLRDAVLGDFRPDLTLYLDVTPEVGLKRARARGELDRIEQESFDFFNRTRARYLELAAQDKSIHTIDATQPLEAVMDAIRTTVTHWVKELDA
notes: as for B1
Purified protein [7]
  Km: 150 ± 22 µM
  Vmax: 39.4 µmol/min/mg

Reference: paper PMC10952841, “Biocatalytic synthesis of 2′‐deoxynucleotide 5′‐triphosphates from bacterial genomic DNA: Proof of principle” (Biotechnology and Bioengineering, 2023)
